Measurements taken from article PMC2330189 (Acta Crystallographica Section F: Structural Biology and …, 2007).

Biological target: the molecule itself
Test: SEC

B1: 1,3-propanediol dehydrogenase from Klebsiella pneumoniae (enzyme, UniProt Q59477 1-387, looked up)
chain: MSYRMFDYLVPNVNFFGPNAISVVGERCQLLGGKKALLVTDKGLRAIKDGAVDKTLHYLREAGIEVAIFDGVEPNPKDTNVRDGLAVFRREQCDIIVTVGGGSPHDCGKGIGIAATHEGDLYQYAGIETLTNPLPPIVAVNTTAGTASEVTRHCVLTNTETKVKFVIVSWRNLPSVSINDPLLMIGKPAALTAATGMDALTHAVEAYISKDANPVTDAAAMQAIRLIARNLRQAVALGSNLQARENMAYASLLAGMAFNNANLGYVHAMAHQLGGLYDMPHGVANAVLLPHVARYNLIANPEKFADIAELMGENITGLSTLDAAEKAIAAITRLSMDIGIPQHLRDLGVKEADFPYMAEMALKDGNAFSNPRKGNEQEIAAIFRQAF
  stoichiometry N: 10
